Data on two substances can be found in paper PMC10866537.

One test has as its target 4-1BBL (Homo sapiens) (UniProt P41273). Particulars: cited from earlier work.
For test [1], the target named is mouse 4-1BB–Fc protein (mouse) (UniProt P20334). The test can be described thus: SPR; BIAcore X100; siglec-4–Fc or m4-1BB–Fc amine-coupled to CM5; h4-1BB–HIS or m-siglec-4–HIS flowed at 18 to 3000 nM in HBS-EP (10 mM Hepes pH 7.4, 150 mM NaCl, 3 mM EDTA, 0.05% P20); fitted with a 1:2 binding model.
Chain of mouse 4-1BB–Fc protein (mouse) (P20334 24-187): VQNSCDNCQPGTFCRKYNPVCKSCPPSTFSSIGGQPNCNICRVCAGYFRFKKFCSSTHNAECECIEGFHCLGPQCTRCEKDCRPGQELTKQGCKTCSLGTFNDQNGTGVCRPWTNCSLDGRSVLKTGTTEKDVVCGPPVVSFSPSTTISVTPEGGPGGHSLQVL

Chain of 4-1BBL (Homo sapiens) (P41273 whole entry): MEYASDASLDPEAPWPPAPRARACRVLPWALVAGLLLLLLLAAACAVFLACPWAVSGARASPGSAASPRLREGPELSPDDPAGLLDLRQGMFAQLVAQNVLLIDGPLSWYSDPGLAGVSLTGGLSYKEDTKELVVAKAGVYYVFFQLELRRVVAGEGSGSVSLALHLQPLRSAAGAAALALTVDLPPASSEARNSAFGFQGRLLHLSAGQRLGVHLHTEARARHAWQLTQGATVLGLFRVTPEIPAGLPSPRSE
Chain of 4-1BB (Q07011 24-255): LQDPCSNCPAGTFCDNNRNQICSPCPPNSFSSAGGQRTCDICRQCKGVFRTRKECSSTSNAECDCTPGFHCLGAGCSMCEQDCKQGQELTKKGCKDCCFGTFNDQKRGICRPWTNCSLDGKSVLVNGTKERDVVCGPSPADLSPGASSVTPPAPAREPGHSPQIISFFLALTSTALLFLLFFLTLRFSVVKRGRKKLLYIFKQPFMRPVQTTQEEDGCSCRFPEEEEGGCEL

As a reminder, the Kd is the concentration at which binding is half-saturated. For 4-1BB (from UniProt Q07011), the Kd with 4-1BBL (Homo sapiens) is 85.6 nM. “mouse siglec-4–HIS protein (domain or fragment)” yielded an equilibrium dissociation constant (Kd) in test [1] of 860 nM.
